Patent publication US20040146507A1 (Genentech, published 2004)
Where “and” joins values, the source holds several entries; their conditions need not be identical. Equal values may be shown once.

Legend:
[1] = target: T1, rhesus CD11a (rhesus, UniProt H9Z8N3 26-1169); assay: rhesus PBL binding
T1 construct: whole, on cells; On rhesus peripheral blood lymphocytes or leukocytes; also called rhCD11a
T1 sequence: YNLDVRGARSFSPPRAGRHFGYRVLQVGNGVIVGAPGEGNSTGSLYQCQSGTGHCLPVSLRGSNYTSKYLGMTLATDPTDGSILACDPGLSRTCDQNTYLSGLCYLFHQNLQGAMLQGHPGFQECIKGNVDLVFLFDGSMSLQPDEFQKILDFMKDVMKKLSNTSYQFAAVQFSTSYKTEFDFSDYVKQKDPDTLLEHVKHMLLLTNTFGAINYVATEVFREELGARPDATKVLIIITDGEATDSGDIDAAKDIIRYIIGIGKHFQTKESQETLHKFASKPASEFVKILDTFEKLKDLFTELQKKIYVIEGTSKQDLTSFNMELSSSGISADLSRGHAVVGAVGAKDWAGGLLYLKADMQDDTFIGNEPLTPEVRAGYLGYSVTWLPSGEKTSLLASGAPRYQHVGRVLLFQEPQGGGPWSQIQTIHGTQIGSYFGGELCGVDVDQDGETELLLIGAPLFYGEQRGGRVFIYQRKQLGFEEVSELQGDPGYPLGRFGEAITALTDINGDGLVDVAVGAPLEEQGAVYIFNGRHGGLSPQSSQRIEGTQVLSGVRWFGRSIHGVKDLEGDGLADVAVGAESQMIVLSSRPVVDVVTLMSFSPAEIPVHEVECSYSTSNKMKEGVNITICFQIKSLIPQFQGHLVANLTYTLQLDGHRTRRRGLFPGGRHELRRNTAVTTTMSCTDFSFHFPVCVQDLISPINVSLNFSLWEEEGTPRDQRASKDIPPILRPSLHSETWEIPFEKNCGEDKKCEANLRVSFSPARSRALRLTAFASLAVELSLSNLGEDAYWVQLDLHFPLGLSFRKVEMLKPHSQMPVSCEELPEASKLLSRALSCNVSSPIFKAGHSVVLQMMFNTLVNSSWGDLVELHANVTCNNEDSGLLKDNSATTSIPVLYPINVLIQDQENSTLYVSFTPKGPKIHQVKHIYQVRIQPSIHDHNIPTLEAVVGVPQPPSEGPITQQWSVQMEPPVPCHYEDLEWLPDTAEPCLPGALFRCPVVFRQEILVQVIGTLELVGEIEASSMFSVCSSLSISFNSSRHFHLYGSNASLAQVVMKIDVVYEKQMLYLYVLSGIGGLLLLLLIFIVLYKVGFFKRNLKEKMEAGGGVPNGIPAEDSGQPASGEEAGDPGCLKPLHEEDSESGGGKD

[2] = target: T2, human CD11a (human, UniProt P20701 26-1170); assay: saturation binding, human lymphocytes, donor 1; Kd(app)
T2 construct: whole, on cells; On Jurkat T-cells or human peripheral blood mononuclear cells, as part of LFA-1; also called CD11a on Jurkat cells; alpha subunit of LFA-1
Protocol: (§1) Radiolabeled antibodies were prepared using Iodo-Gen (Pierce, Rockford, Ill.) according to the manufacturer's instructions. 50 μg of antibody and 1 mCi¹²⁵I (DuPont, Wilmington, Del.) were added to each tube and incubated for 15 min at 25° C. Radiolabeled proteins were purified from the remaining free ¹²⁵I using PD-10 columns (Pharmacia, Uppsala, Sweden) equilibrated in Hank's Balanced Salt Solution (HBSS, Life Technologies, Grand Island, N.Y.) containing 0.2% gelatin.
(§2) Antibody affinities were determined by saturation binding using either peripheral blood mononuclear cells (murine MHM24 and HuIgG1) or rhesus leukocytes (MHM23, RhIgG1). In each assay, a radiolabeled antibody was serially diluted in HBSS-0.2% gelatin in quadruplicate. Nonspecific binding was determined by the addition of 500 nM final concentration of homologous unlabeled antibody in duplicate through the serial dilution. Human lymphocytes or rhesus leukocytes were added to the plates in a volume of 170 μl per well. Plates were incubated for 2 hr at room temperature on an orbital plate shaker. After incubation, cells were harvested using a SKATRON™ cell harvester (Lier, Norway) and washed 10 times with PBS containing 0.25% gelatin and 0.1% sodium azide. Samples were then counted for 1 min in an LBK Wallac GammaMaster gamma counter (Gaithersburg, Md.). […]

[3] = target: T1, rhesus CD11a; assay: binding to rhesus CD11a compared with human CD11a
[4] = target: T2, human CD11a; assay: cell-based or functional assay
[5] = target: T2, human CD11a; assay: FACScan, Jurkat cells
How it was run: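 Flow-cytometric binding to 10⁶ Jurkat T-cells with serially diluted humanized antibodies (including CDR alanine-scan mutants of HuIgG1), 45 min at 4 °C in PBS-0.1% BSA-10 mM sodium azide. Detected with fluorescein anti-human F(ab′)₂, 45 min at 4 °C; 8×10³ scatter-gated live cells acquired.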

[6] = target: T2, human CD11a; assay: saturation binding, 125I-antibody, human lymphocytes; Kd(app)
Protocol: as §1, §2

[7] = target: T2, human CD11a; assay: not stated (summary of the Example)
[8] = target: T2, human CD11a; assay: cell-based or functional assay; remark: listed apart in the source
[9] = target: T1, rhesus CD11a; assay: binding to rhesus peripheral blood lymphocytes
[10] = target: T2, human CD11a; assay: FACScan, Jurkat cells; remark: listed apart in the source
Protocol: (§3) Aliquots of 10⁶ Jurkat T-cells were incubated with serial dilutions of humanized and control antibodies in PBS-0.1% BSA-10 mM sodium azide for 45 min at 4° C. The cells were washed and then incubated in fluorescein-conjugated goat anti-human F(ab′)₂ (Organon Teknika, Westchester, Pa.) for 45 min at 4° C. Cells were washed and analysed on a FACScan (Becton Dickinson, Mountain View, Calif.). 8×10³ cells were acquired by list mode and gated by forward light scatter versus side light scatter, thereby excluding dead cells and debris.
To determine which CDR residues were involved in binding to human CD11a an alanine-scan (Cunningham et al., Science 244:1081 (1989)) was performed on the CDR residues of HuIgG1. Each mutant was tested for binding to CD11a on Jurkat cells. In the light chain only CDR-L3 contributes to binding.

[11] = target: T2, human CD11a; assay: FACScan, Jurkat cells; remark: listed apart in the source
Protocol: as §3
Target sequence in this assay (P20701 26-1170): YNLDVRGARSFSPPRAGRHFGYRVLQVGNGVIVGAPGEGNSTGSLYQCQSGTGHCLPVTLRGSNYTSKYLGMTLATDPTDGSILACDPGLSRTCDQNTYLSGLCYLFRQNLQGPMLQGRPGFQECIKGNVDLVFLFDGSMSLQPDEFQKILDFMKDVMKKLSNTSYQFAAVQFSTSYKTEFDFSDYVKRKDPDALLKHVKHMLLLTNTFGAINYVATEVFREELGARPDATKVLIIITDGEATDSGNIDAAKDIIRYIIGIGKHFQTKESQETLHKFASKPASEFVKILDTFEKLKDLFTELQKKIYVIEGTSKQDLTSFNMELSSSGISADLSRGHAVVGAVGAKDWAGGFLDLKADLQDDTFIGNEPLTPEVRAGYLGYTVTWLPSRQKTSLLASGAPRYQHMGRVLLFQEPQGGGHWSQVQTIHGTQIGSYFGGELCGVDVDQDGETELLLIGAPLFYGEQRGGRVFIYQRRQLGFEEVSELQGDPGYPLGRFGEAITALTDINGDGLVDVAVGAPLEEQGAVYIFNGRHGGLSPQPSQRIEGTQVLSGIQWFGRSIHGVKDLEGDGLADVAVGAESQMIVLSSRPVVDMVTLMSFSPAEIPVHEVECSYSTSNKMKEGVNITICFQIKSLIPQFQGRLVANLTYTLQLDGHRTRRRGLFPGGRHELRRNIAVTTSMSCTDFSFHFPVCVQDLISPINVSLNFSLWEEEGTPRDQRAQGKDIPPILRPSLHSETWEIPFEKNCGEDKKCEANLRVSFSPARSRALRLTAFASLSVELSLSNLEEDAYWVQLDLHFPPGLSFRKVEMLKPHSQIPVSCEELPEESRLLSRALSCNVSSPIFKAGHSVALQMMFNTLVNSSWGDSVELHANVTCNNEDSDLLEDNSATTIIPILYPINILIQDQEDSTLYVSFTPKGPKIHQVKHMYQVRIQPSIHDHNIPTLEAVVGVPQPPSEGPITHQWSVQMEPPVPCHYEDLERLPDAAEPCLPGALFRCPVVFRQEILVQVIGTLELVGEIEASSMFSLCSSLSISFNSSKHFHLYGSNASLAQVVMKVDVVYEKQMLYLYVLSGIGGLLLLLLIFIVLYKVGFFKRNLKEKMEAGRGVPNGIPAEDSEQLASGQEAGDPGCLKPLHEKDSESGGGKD

[12] = target: T2, human CD11a; assay: saturation binding, human lymphocytes, donor 2; Kd(app)
Protocol: as §1, §2

[13] = target: T1, rhesus CD11a; assay: cell-based or functional assay
[14] = target: T3, rhesus-human chimeric CD11a (human (I-domain mutated to rhesus), UniProt P20701 26-1170); assay: cell-based or functional assay
T3 sequence (looked up): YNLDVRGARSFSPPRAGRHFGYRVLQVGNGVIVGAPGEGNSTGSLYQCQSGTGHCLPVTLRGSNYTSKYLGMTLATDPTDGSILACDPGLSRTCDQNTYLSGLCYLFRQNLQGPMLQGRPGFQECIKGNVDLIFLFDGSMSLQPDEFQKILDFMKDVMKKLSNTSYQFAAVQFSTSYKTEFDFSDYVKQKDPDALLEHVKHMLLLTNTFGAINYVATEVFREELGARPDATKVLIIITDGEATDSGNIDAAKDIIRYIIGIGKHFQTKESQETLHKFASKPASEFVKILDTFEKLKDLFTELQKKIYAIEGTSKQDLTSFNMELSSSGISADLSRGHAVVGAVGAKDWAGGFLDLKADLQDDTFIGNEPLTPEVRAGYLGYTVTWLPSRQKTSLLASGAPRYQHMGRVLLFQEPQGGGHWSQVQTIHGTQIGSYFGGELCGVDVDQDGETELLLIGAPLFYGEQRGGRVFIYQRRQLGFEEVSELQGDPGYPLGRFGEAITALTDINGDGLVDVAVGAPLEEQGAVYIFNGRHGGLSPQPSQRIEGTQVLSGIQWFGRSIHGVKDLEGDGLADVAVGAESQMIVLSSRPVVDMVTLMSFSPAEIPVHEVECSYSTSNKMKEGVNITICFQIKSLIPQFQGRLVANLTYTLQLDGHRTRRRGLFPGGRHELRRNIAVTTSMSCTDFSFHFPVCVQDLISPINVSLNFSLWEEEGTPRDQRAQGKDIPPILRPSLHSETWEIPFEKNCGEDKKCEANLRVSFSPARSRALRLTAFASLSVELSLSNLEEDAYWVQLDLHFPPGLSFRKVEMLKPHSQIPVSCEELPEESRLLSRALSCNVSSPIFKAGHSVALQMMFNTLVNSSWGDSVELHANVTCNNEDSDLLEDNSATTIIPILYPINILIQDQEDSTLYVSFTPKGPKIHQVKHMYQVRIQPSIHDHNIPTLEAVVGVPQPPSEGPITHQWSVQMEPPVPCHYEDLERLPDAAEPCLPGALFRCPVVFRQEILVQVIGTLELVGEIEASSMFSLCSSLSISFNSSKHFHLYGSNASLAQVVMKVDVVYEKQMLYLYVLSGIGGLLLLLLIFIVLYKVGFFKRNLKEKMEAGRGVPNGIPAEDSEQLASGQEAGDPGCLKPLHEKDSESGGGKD

[15] = target: T1, rhesus CD11a; assay: saturation binding, rhesus leukocytes, donor 3, with 1 mg/ml human IgG1; Kd(app)
Protocol: Leukocytes were purified from heparinized rhesus monkey peripheral blood collected from two individuals by Dextran sedimentation. Blood was diluted with an equal volume of 3% Dextran T500 (Pharmacia) in PBS and was allowed to sediment undisturbed at 25° C. for 30 min. After sedimentation, cells remaining in suspension were harvested and pelleted by centrifugation at 400×g for 5 min. Residual erythrocytes were removed by two cycles of hypotonic lysis using distilled water and 2×HBSS. After erythrocyte lysis, cells were washed in PBS and then resuspended in HBSS-0.2% gelatin.
as §2, with “After incubation, cells were harvested using a SKATRON™ cell harvester (Lier, Norway) and washed 10 times with PBS containing 0.25% gelatin and 0.1% sodium azide.” left out

[16] = target: T1, rhesus CD11a; assay: cell-based or functional assay; remark: listed apart in the source
[17] = target: T1, rhesus CD11a; assay: saturation binding
Protocol: Antibody affinities were determined by saturation binding using either peripheral blood mononuclear cells (murine MHM24 and HuIgG1) or rhesus leukocytes (MHM23, RhIgG1). In each assay, a radiolabeled antibody was serially diluted in HBSS-0.2% gelatin in quadruplicate. Nonspecific binding was determined by the addition of 500 nM final concentration of homologous unlabeled antibody in duplicate through the serial dilution. Human lymphocytes or rhesus leukocytes were added to the plates in a volume of 170 μl per well. Plates were incubated for 2 hr at room temperature on an orbital plate shaker. After incubation, cells were harvested using a SKATRON™ cell harvester (Lier, Norway) and washed 10 times with PBS containing 0.25% gelatin and 0.1% sodium azide. Samples were then counted for 1 min in an LBK Wallac GammaMaster gamma counter (Gaithersburg, Md.). Data was transformed from counts per minute to nanomolarity and four-parameter curve-fitting of saturation plots (bound versus total) was then performed to determine Kd (app) values.

[18] = target: T1, rhesus CD11a; assay: saturation binding, rhesus leukocytes, donor 1; Kd(app)
Protocol: as §1
Leukocytes were purified from heparinized rhesus monkey peripheral blood collected from two individuals by Dextran sedimentation. Blood was diluted with an equal volume of 3% Dextran T500 (Pharmacia) in PBS and was allowed to sediment undisturbed at 25° C. for 30 min. After sedimentation, cells remaining in suspension were harvested and pelleted by centrifugation at 400×g for 5 min. Residual erythrocytes were removed by two cycles of hypotonic lysis using distilled water and 2×HBSS. […]
Antibody affinities were determined by saturation binding using either peripheral blood mononuclear cells (murine MHM24 and HuIgG1) or rhesus leukocytes (MHM23, RhIgG1). […] Nonspecific binding was determined by the addition of 500 nM final concentration of homologous unlabeled antibody in duplicate through the serial dilution. […] Samples were then counted for 1 min in an LBK Wallac GammaMaster gamma counter (Gaithersburg, Md.). […]

[19] = target: T1, rhesus CD11a; assay: cell-based or functional assay; remark: listed apart in the source
[20] = target: T3, rhesus-human chimeric CD11a; assay: cell-based or functional assay; remark: listed apart in the source
[21] = target: T1, rhesus CD11a; assay: rhesus PBL binding; remark: listed apart in the source
[22] = target: T1, rhesus CD11a; assay: rhesus PBL binding; end of range assigned by the printed EC50s

B1: humanized MHM24 IgG1 (antibody, V domains shown)
VH: EVQLVESGGGLVQPGGSLRLSCAASGYSFTGHWMNWVRQAPGKGLEWVGMIHPSDSETRYNQKFKDRFTISVDKSKNTLYLQMNSLRAEDTAVYYCARGIYFYGTTYFDYWGQGTLVTVSS
VL: DIQMTQSPSSLSASVGDRVTITCRASKTISKYLAWYQQKPGKAPKLLIYSGSTLQSGVPSRFSGSGSGTDFTLTISSLQPEDFATYYCQQHNEYPLTFGQGTKVEIKR
notes: F(ab)-8 VL and VH domains fused to human constant light and heavy (IgG1) chains; also called HuIgG1; huMHM24
- Var.EC50/HuIgG1 EC50 [1]: 1 ratio
- Kd [2]: 0.11 nM
- fold reduction in binding against human CD11a [3]: ~1000 fold
- IC50, human mixed lymphocyte response [4]: 0.38 nM
- EC50 [5]: 0.042 nM
- Kd [6]: 0.15 nM
- Kd [7]: 0.2 nM
- IC50, blocking of cell adhesion, Jurkat: HuK [8]: 0.13 nM
- EC50 [9]: 45.6 nM
- Var.EC50/HuIgG1 EC50 [10]: 1 ratio
- EC50 F(ab)/EC50 F(ab)-2 [11]: 0.004 ratio
- Kd [12]: 0.18 nM

B2: rhesus-binding MHM24 IgG1 (antibody, V domains shown)
VH: EVQLVESGGGLVQPGGSLRLSCAASGYSFTGHWMNWVRQAPGKGLEWVGMIAPASSSTRYNQKFKDRFTISVDKSKNTLYLQMNSLRAEDTAVYYCARGIYFYGTTYFDYWGQGTLVTVSS
VL: DIQMTQSPSSLSASVGDRVTITCRASKTISKYLAWYQQKPGKAPKLLIYSGSTLQSGVPSRFSGSGSGTDFTLTISSLQPEDFATYYCQQHNEYPLTFGQGTKVEIKR
notes: HuIgG1 mutant (H52 Ala, H53 Ala, H54 Ser, H56 Ser); human IgG1; also called RhIgG1; H2C12
- Var.EC50/HuIgG1 EC50 [1]: 0.004 ratio
- fold less efficacious than MHM23, RhLy: HuICAM adhesion [13]: 4 fold
- fold less efficacious than MHM23, RhLy: HuK adhesion [13]: 74 fold
- fold down from MHM23, Rh/HuCD11a-293: HuK adhesion [14]: 4 fold
- Kd [15]: 2.8 nM and 2.7 nM
- IC50, rhesus mixed lymphocyte response [16]: 23.4 nM
- fold Kd against Kd of HuIgG1 for human CD11a [17]: ~26 fold
- Kd [18]: 3.9 nM
- IC50, blocking of cell adhesion, RhLy: HuICAM [19]: 5.3 nM
- IC50, blocking of cell adhesion, RhLy: HuK [19]: 119 nM
- IC50, blocking of cell adhesion, Rh/HuCD11a: HuK [20]: 4.9 nM
- EC50 [21]: 0.19 nM
- fold improvement over EC50 of HuIgG1 for rhesus CD11a [22]: 240 to 415 fold
- fold weaker than EC50 of HuIgG1 for human CD11a [22]: 3 to 5 fold
